Laboratory results taken from patent US20140287471A1, “VARIANT CBH I POLYPEPTIDES WITH REDUCED PRODUCT INHIBITION” (BP CORPORATION NORTN AMERICA INC., priority 2011, published 2014).

Legend:
[1] = 4-MUL cellobiose tolerance/inhibition assay, dose-response IC50 (Example 2); type: biochemical; settings: double mutant 268X+411A; for IC50: averaged IC50 from Tables 8-11, read-out: 268_+411A Measured (merged IC50); for 268 +411A Expected IC50: expected IC50 (additive values of single mutations); for 268_+411A Synergistic**↑: measured versus expected additive IC50
Summary of the method: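 CBH I variant supernatants (5 μg/mL final, or undiluted if lower) on 0.5 mM 4-MUL in 100 mM MES pH 6 with 25 mM gluconolactone, fluorescence ex/em 365/450 nm. Activity measured at 6–8 cellobiose levels up to 100 mM; IC50 from four-parameter fit, bottom constrained to knockout background.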

[2] = 4-MUL assay, specific activity (Example 2); type: biochemical; settings: double mutant 268X+411A
Summary of the method: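 CBH I variant supernatants (5 μg/mL final) hydrolysed 0.5 mM 4-MUL in 100 mM MES pH 6 with 25 mM gluconolactone to block BG, with or without cellobiose. Fluorescence (ex/em 365/450 nm) followed over the first 15 min for initial rates, plus a 1 h endpoint before and after carbonate quench. Specific activity from 4-MU standards and HPLC protein quantification.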

Molecule | IC50 [1] | 268 +411A Expected IC50 [1] | 268_+411A Synergistic**↑ [1] | 268— +411 A Measured Specific Activity (SA) [2] | 268— +411 A Δ SA* (change in specific activity; ratio of variant: WT) [2]
268Val+411A (protein, UniProt P62694 18-513, looked up, variant R268V R411A) Exoglucanase 1: QSACTLQSETHPPLTWQKCSSGGTCTQQTGSVVIDANWRWTHATNSSTNCYDGNTWSSTLCPDNETCAKNCCLDGAAYASTYGVTTSGNSLSIGFVTQSAQKNVGARLYLMASDTTYQEFTLLGNEFSFDVDVSQLPCGLNGALYFVSMDADGGVSKYPTNTAGAKYGTGYCDSQCPRDLKFINGQANVEGWEPSSNNANTGIGGHGSCCSEMDIWEANSISEALTPHPCTTVGQEICEGDGCGGTYSDNVYGGTCDPDGCDWNPYRLGNTSFYGPGSSFTLDTTKKLTVVTQFETSGAINRYYVQNGVTFQQPNAELGSYSGNELNDDYCTAEEAEFGGSSFSDKGGLTQFKKATSGGMVLVMSLWDDYYANMLWLDSTYPTNETSSTPGAVAGSCSTSSGVPAQVESQSPNAKVTFSNIKFGPIGSTGNPSGGNPPGGNRGTTTTRRPATTTGSSPGPTQSHYGQCGGIGYSGPTVCASGTTCQVLNPYYSQCL | 9490 µM | 1570 µM | 6.0 | 1.43 μmol 4 MU/min/mg CBH I | 1.9
268Gln+411A (protein, UniProt P62694 18-513, looked up, variant R268Q R411A) Exoglucanase 1: QSACTLQSETHPPLTWQKCSSGGTCTQQTGSVVIDANWRWTHATNSSTNCYDGNTWSSTLCPDNETCAKNCCLDGAAYASTYGVTTSGNSLSIGFVTQSAQKNVGARLYLMASDTTYQEFTLLGNEFSFDVDVSQLPCGLNGALYFVSMDADGGVSKYPTNTAGAKYGTGYCDSQCPRDLKFINGQANVEGWEPSSNNANTGIGGHGSCCSEMDIWEANSISEALTPHPCTTVGQEICEGDGCGGTYSDNQYGGTCDPDGCDWNPYRLGNTSFYGPGSSFTLDTTKKLTVVTQFETSGAINRYYVQNGVTFQQPNAELGSYSGNELNDDYCTAEEAEFGGSSFSDKGGLTQFKKATSGGMVLVMSLWDDYYANMLWLDSTYPTNETSSTPGAVAGSCSTSSGVPAQVESQSPNAKVTFSNIKFGPIGSTGNPSGGNPPGGNRGTTTTRRPATTTGSSPGPTQSHYGQCGGIGYSGPTVCASGTTCQVLNPYYSQCL | 9130 µM |  |  | 2.13 μmol 4 MU/min/mg CBH I | 2.8
268Ser+411A (protein, UniProt P62694 18-513, looked up, variant R268S R411A) Exoglucanase 1: QSACTLQSETHPPLTWQKCSSGGTCTQQTGSVVIDANWRWTHATNSSTNCYDGNTWSSTLCPDNETCAKNCCLDGAAYASTYGVTTSGNSLSIGFVTQSAQKNVGARLYLMASDTTYQEFTLLGNEFSFDVDVSQLPCGLNGALYFVSMDADGGVSKYPTNTAGAKYGTGYCDSQCPRDLKFINGQANVEGWEPSSNNANTGIGGHGSCCSEMDIWEANSISEALTPHPCTTVGQEICEGDGCGGTYSDNSYGGTCDPDGCDWNPYRLGNTSFYGPGSSFTLDTTKKLTVVTQFETSGAINRYYVQNGVTFQQPNAELGSYSGNELNDDYCTAEEAEFGGSSFSDKGGLTQFKKATSGGMVLVMSLWDDYYANMLWLDSTYPTNETSSTPGAVAGSCSTSSGVPAQVESQSPNAKVTFSNIKFGPIGSTGNPSGGNPPGGNRGTTTTRRPATTTGSSPGPTQSHYGQCGGIGYSGPTVCASGTTCQVLNPYYSQCL | 9570 µM | 1670 µM | 5.7 | 1.59 μmol 4 MU/min/mg CBH I | 2.1
268Lys+411A (protein, UniProt P62694 18-513, looked up, variant R268K R411A) Exoglucanase 1: QSACTLQSETHPPLTWQKCSSGGTCTQQTGSVVIDANWRWTHATNSSTNCYDGNTWSSTLCPDNETCAKNCCLDGAAYASTYGVTTSGNSLSIGFVTQSAQKNVGARLYLMASDTTYQEFTLLGNEFSFDVDVSQLPCGLNGALYFVSMDADGGVSKYPTNTAGAKYGTGYCDSQCPRDLKFINGQANVEGWEPSSNNANTGIGGHGSCCSEMDIWEANSISEALTPHPCTTVGQEICEGDGCGGTYSDNKYGGTCDPDGCDWNPYRLGNTSFYGPGSSFTLDTTKKLTVVTQFETSGAINRYYVQNGVTFQQPNAELGSYSGNELNDDYCTAEEAEFGGSSFSDKGGLTQFKKATSGGMVLVMSLWDDYYANMLWLDSTYPTNETSSTPGAVAGSCSTSSGVPAQVESQSPNAKVTFSNIKFGPIGSTGNPSGGNPPGGNRGTTTTRRPATTTGSSPGPTQSHYGQCGGIGYSGPTVCASGTTCQVLNPYYSQCL | 6140 µM | 1290 µM | 4.8 |  | 0.7
268Arg+411A (protein, UniProt P62694 18-513, looked up, variant R411A) Exoglucanase 1: QSACTLQSETHPPLTWQKCSSGGTCTQQTGSVVIDANWRWTHATNSSTNCYDGNTWSSTLCPDNETCAKNCCLDGAAYASTYGVTTSGNSLSIGFVTQSAQKNVGARLYLMASDTTYQEFTLLGNEFSFDVDVSQLPCGLNGALYFVSMDADGGVSKYPTNTAGAKYGTGYCDSQCPRDLKFINGQANVEGWEPSSNNANTGIGGHGSCCSEMDIWEANSISEALTPHPCTTVGQEICEGDGCGGTYSDNRYGGTCDPDGCDWNPYRLGNTSFYGPGSSFTLDTTKKLTVVTQFETSGAINRYYVQNGVTFQQPNAELGSYSGNELNDDYCTAEEAEFGGSSFSDKGGLTQFKKATSGGMVLVMSLWDDYYANMLWLDSTYPTNETSSTPGAVAGSCSTSSGVPAQVESQSPNAKVTFSNIKFGPIGSTGNPSGGNPPGGNRGTTTTRRPATTTGSSPGPTQSHYGQCGGIGYSGPTVCASGTTCQVLNPYYSQCL | 1220 µM | 1220 µM | 1.0 | 0.53 μmol 4 MU/min/mg CBH I | 0.7
268Trp+411A (protein, UniProt P62694 18-513, looked up, variant R268W R411A) Exoglucanase 1: QSACTLQSETHPPLTWQKCSSGGTCTQQTGSVVIDANWRWTHATNSSTNCYDGNTWSSTLCPDNETCAKNCCLDGAAYASTYGVTTSGNSLSIGFVTQSAQKNVGARLYLMASDTTYQEFTLLGNEFSFDVDVSQLPCGLNGALYFVSMDADGGVSKYPTNTAGAKYGTGYCDSQCPRDLKFINGQANVEGWEPSSNNANTGIGGHGSCCSEMDIWEANSISEALTPHPCTTVGQEICEGDGCGGTYSDNWYGGTCDPDGCDWNPYRLGNTSFYGPGSSFTLDTTKKLTVVTQFETSGAINRYYVQNGVTFQQPNAELGSYSGNELNDDYCTAEEAEFGGSSFSDKGGLTQFKKATSGGMVLVMSLWDDYYANMLWLDSTYPTNETSSTPGAVAGSCSTSSGVPAQVESQSPNAKVTFSNIKFGPIGSTGNPSGGNPPGGNRGTTTTRRPATTTGSSPGPTQSHYGQCGGIGYSGPTVCASGTTCQVLNPYYSQCL | 9970 µM | 1690 µM | 5.9 | 1.37 μmol 4 MU/min/mg CBH I | 1.8
268Phe+411A (protein, UniProt P62694 18-513, looked up, variant R268F R411A) Exoglucanase 1: QSACTLQSETHPPLTWQKCSSGGTCTQQTGSVVIDANWRWTHATNSSTNCYDGNTWSSTLCPDNETCAKNCCLDGAAYASTYGVTTSGNSLSIGFVTQSAQKNVGARLYLMASDTTYQEFTLLGNEFSFDVDVSQLPCGLNGALYFVSMDADGGVSKYPTNTAGAKYGTGYCDSQCPRDLKFINGQANVEGWEPSSNNANTGIGGHGSCCSEMDIWEANSISEALTPHPCTTVGQEICEGDGCGGTYSDNFYGGTCDPDGCDWNPYRLGNTSFYGPGSSFTLDTTKKLTVVTQFETSGAINRYYVQNGVTFQQPNAELGSYSGNELNDDYCTAEEAEFGGSSFSDKGGLTQFKKATSGGMVLVMSLWDDYYANMLWLDSTYPTNETSSTPGAVAGSCSTSSGVPAQVESQSPNAKVTFSNIKFGPIGSTGNPSGGNPPGGNRGTTTTRRPATTTGSSPGPTQSHYGQCGGIGYSGPTVCASGTTCQVLNPYYSQCL | 9700 µM | 1650 µM | 5.9 | 2.07 μmol 4 MU/min/mg CBH I | 2.7
268Glu+411A (protein, UniProt P62694 18-513, looked up, variant R268E R411A) Exoglucanase 1: QSACTLQSETHPPLTWQKCSSGGTCTQQTGSVVIDANWRWTHATNSSTNCYDGNTWSSTLCPDNETCAKNCCLDGAAYASTYGVTTSGNSLSIGFVTQSAQKNVGARLYLMASDTTYQEFTLLGNEFSFDVDVSQLPCGLNGALYFVSMDADGGVSKYPTNTAGAKYGTGYCDSQCPRDLKFINGQANVEGWEPSSNNANTGIGGHGSCCSEMDIWEANSISEALTPHPCTTVGQEICEGDGCGGTYSDNEYGGTCDPDGCDWNPYRLGNTSFYGPGSSFTLDTTKKLTVVTQFETSGAINRYYVQNGVTFQQPNAELGSYSGNELNDDYCTAEEAEFGGSSFSDKGGLTQFKKATSGGMVLVMSLWDDYYANMLWLDSTYPTNETSSTPGAVAGSCSTSSGVPAQVESQSPNAKVTFSNIKFGPIGSTGNPSGGNPPGGNRGTTTTRRPATTTGSSPGPTQSHYGQCGGIGYSGPTVCASGTTCQVLNPYYSQCL | 16700 µM | 1800 µM | 9.3 | 0.58 μmol 4 MU/min/mg CBH I | 0.8
268His+411A (protein, UniProt P62694 18-513, looked up, variant R268H R411A) Exoglucanase 1: QSACTLQSETHPPLTWQKCSSGGTCTQQTGSVVIDANWRWTHATNSSTNCYDGNTWSSTLCPDNETCAKNCCLDGAAYASTYGVTTSGNSLSIGFVTQSAQKNVGARLYLMASDTTYQEFTLLGNEFSFDVDVSQLPCGLNGALYFVSMDADGGVSKYPTNTAGAKYGTGYCDSQCPRDLKFINGQANVEGWEPSSNNANTGIGGHGSCCSEMDIWEANSISEALTPHPCTTVGQEICEGDGCGGTYSDNHYGGTCDPDGCDWNPYRLGNTSFYGPGSSFTLDTTKKLTVVTQFETSGAINRYYVQNGVTFQQPNAELGSYSGNELNDDYCTAEEAEFGGSSFSDKGGLTQFKKATSGGMVLVMSLWDDYYANMLWLDSTYPTNETSSTPGAVAGSCSTSSGVPAQVESQSPNAKVTFSNIKFGPIGSTGNPSGGNPPGGNRGTTTTRRPATTTGSSPGPTQSHYGQCGGIGYSGPTVCASGTTCQVLNPYYSQCL | 5270 µM | 1410 µM | 3.7 | 1.35 μmol 4 MU/min/mg CBH I | 1.8
